Assay results as given in patent US20240270821A1, “GIP/GLP1/GCG TRI-RECEPTOR AGONISTS AND USES THEREOF” (priority 2023, published 2024).
Starred links: 1 amine or outer side, 2 acyl side, 3 side chain; linkers in the order of their positions; H or OH if unused. Non-standard residues stand in square brackets, D forms with d. Groups on a side chain read outwards from the residue. No end group written: not given here. *: point of attachment. C20 diacid = O=C(O)CCCCCCCCCCCCCCCCCCC(=O)*; Phe(4-CN) = N#Cc1ccc(C[C@H](N)C(=O)O)cc1; αMePhe(2-F) = C[C@](N)(Cc1ccccc1F)C(=O)O; γGlu = O=C(O)[C@H](CCC(=O)[*:2])N[*:1]; αMeL = CC(C)C[C@](C)(N)C(=O)O; AEEA = NCCOCCOCC(=O)O; Aib = CC(C)(N)C(=O)O

How the values were obtained:
Assay in all cases: cell-based or functional assay
[1] = biological target: hGLP-1R (Homo sapiens, UniProt P43220)
Sequence of hGLP-1R (P43220 24-463): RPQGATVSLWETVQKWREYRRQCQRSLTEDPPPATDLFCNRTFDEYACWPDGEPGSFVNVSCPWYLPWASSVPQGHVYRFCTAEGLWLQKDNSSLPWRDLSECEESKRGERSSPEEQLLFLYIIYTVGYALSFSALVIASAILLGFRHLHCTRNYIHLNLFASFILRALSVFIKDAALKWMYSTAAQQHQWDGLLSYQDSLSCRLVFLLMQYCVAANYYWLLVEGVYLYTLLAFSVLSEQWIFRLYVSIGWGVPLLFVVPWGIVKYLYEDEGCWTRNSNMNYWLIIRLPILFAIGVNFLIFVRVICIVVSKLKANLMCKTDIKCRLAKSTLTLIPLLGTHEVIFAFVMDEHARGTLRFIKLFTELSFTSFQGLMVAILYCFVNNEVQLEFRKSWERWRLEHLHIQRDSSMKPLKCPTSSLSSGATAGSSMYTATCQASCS

[2] = biological target: T1, human GIP receptor (human) (UniProt P48546)
T1 sequence (looked up): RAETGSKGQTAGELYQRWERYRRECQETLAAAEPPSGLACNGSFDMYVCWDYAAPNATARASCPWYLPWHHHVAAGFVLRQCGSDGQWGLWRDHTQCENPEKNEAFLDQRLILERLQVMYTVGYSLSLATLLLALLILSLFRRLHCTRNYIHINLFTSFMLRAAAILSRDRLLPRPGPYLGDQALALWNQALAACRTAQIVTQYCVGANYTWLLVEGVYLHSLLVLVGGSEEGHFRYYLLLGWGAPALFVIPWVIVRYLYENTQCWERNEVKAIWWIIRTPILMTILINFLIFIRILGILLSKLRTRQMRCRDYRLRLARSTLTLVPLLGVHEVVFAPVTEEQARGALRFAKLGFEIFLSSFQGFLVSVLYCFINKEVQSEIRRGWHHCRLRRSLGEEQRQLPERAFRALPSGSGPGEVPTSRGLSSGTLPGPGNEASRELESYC

[3] = biological target: human glucagon receptor (human) (UniProt P47871)
Sequence of human glucagon receptor (human) (P47871 26-477): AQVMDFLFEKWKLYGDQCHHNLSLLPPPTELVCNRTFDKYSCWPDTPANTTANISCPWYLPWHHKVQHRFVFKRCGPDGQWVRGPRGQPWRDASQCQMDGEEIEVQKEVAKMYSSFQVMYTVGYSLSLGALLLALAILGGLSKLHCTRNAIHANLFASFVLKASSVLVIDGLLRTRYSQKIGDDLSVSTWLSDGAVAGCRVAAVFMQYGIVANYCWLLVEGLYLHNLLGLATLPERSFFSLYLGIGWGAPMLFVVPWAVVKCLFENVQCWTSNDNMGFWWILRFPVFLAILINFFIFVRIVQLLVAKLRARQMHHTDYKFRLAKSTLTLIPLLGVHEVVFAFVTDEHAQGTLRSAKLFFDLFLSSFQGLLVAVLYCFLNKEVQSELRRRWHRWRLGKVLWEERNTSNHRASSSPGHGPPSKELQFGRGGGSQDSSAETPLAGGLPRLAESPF

Y[Aib]QGT[αMePhe(2-F)]TSD[Phe(4-CN)]SILLDKQAQKAFIEYLLEGGPSSGEPPPSAG-NH2 (not fully specified (residue 20)) [Example 350]
Relative cAMP EC50 [1]: 0.776 nM
cAMP Rel EC50, nM (1% HSA) [1]: 360 nM
Relative cAMP EC50 [2]: 0.106 nM
cAMP Rel EC50, nM (1% HSA) [2]: 33.6 nM
Relative cAMP EC50 [3]: 10.4 nM
cAMP Rel EC50, nM (1% HSA) [3]: 3760 nM

Y[Aib]QGTFTSDYSI[αMeL]LDKQAAK([AEEA-AEEA-γGlu-C20 diacid])QFVEWLIAGGPSSGEPPPAEG-NH2 [Example 332]
Relative cAMP EC50 [1]: 1.24 nM
cAMP Rel EC50 (1% HSA) [1]: 298 nM
Relative cAMP EC50 [2]: 0.413 nM
cAMP Rel EC50 (1% HSA) [2]: 78.2 nM
Relative cAMP EC50 [3]: 11.8 nM
cAMP Rel EC50 (1% HSA) [3]: 3340 nM

Y[Aib]QGT[αMePhe(2-F)]TSDYSKLLDKIAQKAFIEYLIEGGPSSGAPPPSEG-NH2 (not fully specified (residue 20)) [Example 339]
Relative cAMP EC50 [1]: 1.06 nM
cAMP Rel EC50 (1% HSA) [1]: 192 nM
Relative cAMP EC50 [2]: 0.101 nM
cAMP Rel EC50 (1% HSA) [2]: 28.8 nM
Relative cAMP EC50 [3]: 6.81 nM
cAMP Rel EC50 (1% HSA) [3]: 1510 nM

Y[Aib]QGTFTSDYSI[αMeL]LDKQAAKQFIEYLIA[Aib]GPSSGEPPPSEG-NH2 (not fully specified (residue 20)) [Example 349]
Relative cAMP EC50 [1]: 0.555 nM
cAMP Rel EC50, nM (1% HSA) [1]: 218 nM
Relative cAMP EC50 [2]: 0.152 nM
cAMP Rel EC50, nM (1% HSA) [2]: 52.6 nM
Relative cAMP EC50 [3]: 5.12 nM
cAMP Rel EC50, nM (1% HSA) [3]: 2280 nM

Y[Aib]QGT[αMePhe(2-F)]TSDYSILLDKQAAKEFIEYLIEGGPSSGAPPPSEG-NH2 (not fully specified (residue 20)) [Example 340]
Relative cAMP EC50 [1]: 0.648 nM
cAMP Rel EC50 (1% HSA) [1]: 246 nM
Relative cAMP EC50 [2]: 0.189 nM
cAMP Rel EC50 (1% HSA) [2]: 60.4 nM
Relative cAMP EC50 [3]: 2.02 nM
cAMP Rel EC50 (1% HSA) [3]: 647 nM

Y[Aib]QGTFTSDYSI[αMeL]LDKQAAK([AEEA-AEEA-γGlu-C20 diacid])QFVEWLIA[Aib]GPSSGEPPPGEG-NH2 [Example 333]
Relative cAMP EC50 [1]: 0.705 nM
cAMP Rel EC50 (1% HSA) [1]: 182 nM
Relative cAMP EC50 [2]: 0.265 nM
cAMP Rel EC50 (1% HSA) [2]: 36.3 nM
Relative cAMP EC50 [3]: 7.09 nM
cAMP Rel EC50 (1% HSA) [3]: 1410 nM

Y[Aib]QGT[αMePhe(2-F)]TSDYSILLDKQAQKAFIEYLLEGGPSSGEPPPSEG-NH2 (not fully specified (residue 20)) [Example 345]
Relative cAMP EC50 [1]: 0.658 nM
cAMP Rel EC50 (1% HSA) [1]: 256 nM
Relative cAMP EC50 [2]: 0.0377 nM
cAMP Rel EC50 (1% HSA) [2]: 15.3 nM
Relative cAMP EC50 [3]: 11.3 nM
cAMP Rel EC50 (1% HSA) [3]: 3300 nM

Y[Aib]QGTFTSDYSI[αMeL]LDKQAAKQFVEWLIA[Aib]GPSSGEPPPGSG-NH2 (not fully specified (residue 20)) [Example 335]
Relative cAMP EC50 [1]: 0.461 nM
cAMP Rel EC50 (1% HSA) [1]: 150 nM
Relative cAMP EC50 [2]: 0.292 nM
cAMP Rel EC50 (1% HSA) [2]: 46.7 nM
Relative cAMP EC50 [3]: 6.11 nM
cAMP Rel EC50 (1% HSA) [3]: 1410 nM

Y[Aib]QGT[αMePhe(2-F)]TSDYSILLDKQAAKAFIEYLIEGGPSSGEPPPSEG-NH2 (not fully specified (residue 20)) [Example 331]
Relative cAMP EC50 [1]: 0.663 nM
cAMP Rel EC50 (1% HSA) [1]: 207 nM
Relative cAMP EC50 [2]: 0.148 nM
cAMP Rel EC50 (1% HSA) [2]: 47.5 nM
Relative cAMP EC50 [3]: 1.66 nM
cAMP Rel EC50 (1% HSA) [3]: 339 nM

Y[Aib]QGT[αMePhe(2-F)]TSD[Phe(4-CN)]SILLDKQAQKAFIQYLLEGGPSSGEPPPSEG-NH2 (not fully specified (residue 20)) [Example 341]
Relative cAMP EC50 [1]: 1.62 nM
cAMP Rel EC50 (1% HSA) [1]: 395 nM
Relative cAMP EC50 [2]: 0.213 nM
cAMP Rel EC50 (1% HSA) [2]: 49.6 nM
Relative cAMP EC50 [3]: 10.7 nM
cAMP Rel EC50 (1% HSA) [3]: 2930 nM

Y[Aib]QGT[αMePhe(2-F)]TSDYSKLLDKIAQKAFIQYLIEGGPSSGEPPPSEG-NH2 (not fully specified (residue 20)) [Example 338]
Relative cAMP EC50 [1]: 1.22 nM
cAMP Rel EC50 (1% HSA) [1]: 172 nM
Relative cAMP EC50 [2]: 0.0733 nM
cAMP Rel EC50 (1% HSA) [2]: 10.9 nM
Relative cAMP EC50 [3]: 4.02 nM
cAMP Rel EC50 (1% HSA) [3]: 659 nM

B1: Example 343 (peptide)
chain: YXQGTFTSDYSKXLDKKAQXAFVQWLLEGGPSSGEPPPSEG
modifications: not fully specified; synthetic construct; SITE 2: note = 2-Aminoisobutyric Acid; SITE 13: note = alpha-methyl-leucine; SITE 17: note = Lysine is chemically modified through conjugation of the epsilon-amino group of the Lysine side chain with (2-[2-(2-Amino-ethoxy)-ethoxy]-acetyl)-(gamma-Glu)-CO-(CH2) 18-CO2H; SITE 20: n
Relative cAMP EC50 [1]: 1.31 nM
cAMP Rel EC50 (1% HSA) [1]: 178 nM
Relative cAMP EC50 [2]: 0.184 nM
cAMP Rel EC50 (1% HSA) [2]: 16.7 nM
Relative cAMP EC50 [3]: 6.83 nM
cAMP Rel EC50 (1% HSA) [3]: 475 nM
